Test results published in US20200086139A1, “COMBINATION THERAPY FOR THE TREATMENT OF GLIOBLASTOMA” (Genentech, Inc., priority 2012, published 2020).

Key:
[1] = tested on: newly diagnosed glioblastoma; assay: AVAglio Phase III trial, efficacy (PFS, ORR, pseudoprogression, steroid discontinuation); format: in vivo, human
Excerpt: (§1) A randomized, double blind, placebo controlled multicenter Phase III trial of bevacizumab, temozolomide and radiotherapy, followed by bevacizumab and temozolomide versus placebo, temozolomide and radiotherapy followed by placebo and temozolomide in patients with newly diagnosed glioblastoma (AVAglio)
(§2) The AVAglio trial evaluated the efficacy and safety of bevacizumab in combination temozolomide and radiotherapy for newly diagnosed glioblastoma. This study was designed as a prospective, randomized, double blind, placebo controlled Phase III evaluation of bevacizumab plus chemotherapy versus chemotherapy alone. To be eligible, patients must have newly diagnosed glioblastoma with a tissue diagnosis that has been established following either a surgical resection or biopsy. By adding bevacizumab to chemotherapy and radiotherapy, the AVAglio trial aimed to improve overall survival (OS) and progression-free survival (PFS) for this group of patients who have limited therapeutic options and face a particularly poor prognosis. The primary objective was to compare OS and PFS of patients randomised to temozolomide and radiotherapy only or to temozolomide and radiotherapy plus bevacizumab.
(§3) Study Design—This trial consisted of three phases (Concurrent, Maintenance, and Monotherapy) and two (2) treatment arms: temozolomide and radiotherapy (Arm 1) and temozolomide and radiotherapy plus bevacizumab (Arm 2). Patients were randomly assigned (1:1) to either arm, see FIG. 1.
(§4) Eligible patients received 2 Gy radiotherapy 5 days a week for 6 weeks and 75 mg/m^2 temozolomide (TMZ) orally daily for 6 weeks from the first day to the last day of radiotherapy. After a 4 week treatment break, eligible patients received 6 cycles of 150-200 mg/m^2 TMZ on days 1-5 of a every 4 weeks schedule in combination with 10 mg/kg placebo IV every 2 weeks. TMZ was administered orally starting with a 150 mg/m^2 dose that could be escalated. Placebo monotherapy (15 mg/kg every 3 weeks) was then continued until disease progression.
as §4, with “TMZ” for “temozolomide (TMZ)”, “radiotherapy in combination with 10 mg/kg bevacizumab IV every 2 weeks.” for “radiotherapy.”, “bevacizumab” for “placebo”, “Bevacizumab” for “Placebo”
(§5) The initial bevacizumab infusion was over 90 minutes, with subsequent infusions over 60 minutes and then 30 minutes, as tolerated. Bevacizumab was administered on the day of the last day of radiotherapy and TMZ, i.e., the day before the start of the TMZ treatment break.
Analyses of PFS was based on tumor assessments MacDonald Response Criteria (modified WHO criteria) using MRI of the brain and a neurological evaluation as described in Macdonald et al., Response criteria for phase II studies of supratentorial malignant glioma. J Clin Oncol 1990; 8:1277-80.
Tumor assessments were performed at baseline, at the end of the 4 week treatment break, then then every 8 weeks.
Patients≥18 years of age and with newly diagnosed supratentorial Glioblastoma (GBM) with a tissue diagnosis that has been established following either a surgical resection or biopsy. This includes treatment-naïve—(chemotherapy and radiotherapy)—patients with prior diagnosis of a lower grade astrocytoma that has been upgraded to a histologically verified GBM. Patients must have WHO performance status≤2.
Eligible patients had newly diagnosed glioblastoma (WHO performance status≤2). […]

[2] = AVAglio Phase III trial, safety (adverse events); format: in vivo, human; set-up: unit not given here
Excerpt: as §1, §2, §3, §4
as §4, with “TMZ” for “temozolomide (TMZ)”, “radiotherapy in combination with 10 mg/kg bevacizumab IV every 2 weeks.” for “radiotherapy.”, “bevacizumab” for “placebo”, “Bevacizumab” for “Placebo”
as §5
Patients≥18 years of age and with newly diagnosed supratentorial Glioblastoma (GBM) with a tissue diagnosis that has been established following either a surgical resection or biopsy. […] Patients must have WHO performance status≤2.
Eligible patients had newly diagnosed glioblastoma (WHO performance status≤2). After surgical resection, patients were randomized to concurrent therapy with temozolomide with radiation and placebo or temozolomide with radiation and bevacizumab followed by a 28 day treatment break, maintenance therapy with 10 mg/kg bevacizumab or placebo administered every two weeks in combination with temozolomide, and monotherapy with 15 mg/kg bevacizumab or placebo was administered every three weeks until disease progression or unacceptable toxicity. Patients in the placebo arm were treated at the investigators discretion at progression.

In the case of “bevacizumab + RT + T: Arm 2 of AVAglio: bevacizumab (recombinant humanized anti-VEGF monoclonal antibody) with temozolomide and radiotherapy”, the “Best ORR: Difference, % (95% CI)” value ([1]; Bv + T/RT versus P + T/RT, p =< 0.001) is reported as 20.4 (13.9-26.8) %, the “Events, %” value ([1]; PFS events, percent of patients) is reported as 77.3% and the “HR (95% CI)” value ([1]; PFS hazard ratio, bevacizumab + RT + T versus placebo + RT + T, log-rank p < 0.0001) is reported as 0.64 (0.55-0.74). For the same substance, the “effect on ORR (in words)” value ([1]; addition to first line temozolomide plus radiotherapy) was “significantly improves ORR”, the “Potential PsPD, %” value ([1]; end of treatment break) was 2.6% and the “PFS (months)” value ([1]; median progression-free survival, MacDonald Response Criteria, patients with newly diagnosed glioblastoma) was 10.6 months. The “Best ORR: % (95% CI)” value ([1]; objective response rate) was 38.4 (33.5-43.5) %, the “patients on steroids at baseline able to discontinue steroids for part of their progression-free survival interval” value ([1]; patients on steroids at baseline) was 66% and the “Confirmed PsPD, %” value ([1]; post-2nd maintenance cycle) was 2.2%. The “Rejected PsPD, %” value ([1]; post-2nd maintenance cycle) was 0.2%, the “improvement in PFS (in words)” value ([1]; versus chemotherapy in combination with radiotherapy) was “statistically significant and clinically meaningful improvement in PFS” and the “Thromboembolic event Arterial (all grade)” value [2] was 5. The “Thromboembolic event Venous (Grade ≥3)” value [2] was 7.3, the “CHF (grade ≥3)” value ([2]; adverse event) was 0.4 and the “Fistula/abscess (all grade)” value ([2]; adverse event) was 0.6. For the same substance, the “Hypertension (Grade ≥3)” value ([2]; adverse event) was 10.3, the “PRES (Posterior reversible encephalopathy syndrome) (all grade)” value ([2]; adverse event) was 0 and the “Proteinuria (Grade ≥3)” value ([2]; adverse event) was 3.7. The “Bleeding (Grade ≥3) Cerebral Hemorrhage” value ([2]; adverse event, Grade ≥3) was 1.5, the “Bleeding (Grade ≥3) Mucocutaneous bleeding” value ([2]; adverse event, Grade ≥3) was 0.4 and the “Bleeding (Grade ≥3) Other” value ([2]; adverse event, Grade ≥3) was 0.6. For the same substance, the “Bleeding (all grade) Cerebral Hemorrhage” value ([2]; adverse event, all grade) was 2.6, the “Bleeding (all grade) Mucocutaneous bleeding” value ([2]; adverse event, all grade) was 26.7 and the “Bleeding (all grade) Other” value ([2]; adverse event, all grade) was 11.6.
